According to patent US5705334:

Assays:
[1] = test system: h-mtTFA (human mitochondrial transcription factor A) (Homo sapiens); assay: inhibition; conditions: 1 uM protein, HeLa extract excinuclease, 30 C
[2] = test system: HMG1; assay: inhibition; conditions: cisplatin 1,2-d(GpG) intrastrand crosslink at a defined site; 1 uM protein; 20% at 0.5 uM; HeLa extract excinuclease, 30 C; EMSA also run at 1-8 uM but result not stated

| Substance | activity (% inhibition of repair) ([1]; cisplatin 1,2-d(GpG) intrastrand crosslink at a defined site, 95% at 0.5 uM, 8 mM MgCl2, 2 mM ATP) | activity (% inhibition of repair) [2] | activity (% inhibition of repair) ([1]; cisplatin 1,3-d(GpTpG) intrastrand crosslink at a defined site, 40% at 0.5 uM) |
| --- | --- | --- | --- |
| 156 bp DNA with site-specific cisplatin 1,2-d(GpG) intrastrand adduct | 100 | 40 |  |
| 156 bp DNA with site-specific cisplatin 1,3-d(GpTpG) intrastrand adduct |  |  | 75 |
